Test results as given in paper PMC6779417.

Target: 70S ribosome (Escherichia coli MRE600), translating on an mRNA hairpin (Escherichia coli MRE600)
Experiment: single-molecule fluorescence with optical tweezers

EF-G residence time on the ribosome before hairpin unwinding (tau unwinding): 0.25 s
Substance: Cy3-labeled EF-G (S73C EF-G labeled with Cy3-monomaleimide) (from UniProt P0A6M8 1-704) (enzyme)
